The results in this text go back to patent publication US20230024933.

Data set [1] concerns the target histone γH2A.X^pY142, endogenous in primary murine fibroblast cultures (UniProt P27661).
In data set [2] the test system is T1, phosphotyrosine substrate peptide ENDpYINASL.
T1 sequence: ENDYINASL

In data set [3] the test system is T2, phosphoserine substrate peptide RRApSVA.
T2 sequence: RRASVA

Turning to “mutant EYA1C to which exon 10 had been added (EYA1C::e10)”, in data set [1], the “γH2A.X^pY142 foci per nucleus after NCS exposure” value is listed as “EYA1C containing exon 10 (EYA1C::e10) phenocopied EYA1A with regard to premature γH2A.X^pY142 dephosphorylation”. Besides, the “activity to dephosphorylate peptide ENDpYINASL” value in data set [2] is “overexpression of EYA1C::e10 phenocopied dephosphorylating efficacy and fibroblast accumulation of EYA1A”.

As to “EYA1 isoform C (human splice variant EYA1C, exon 10 skipped)”, the “serine phosphatase activity (dephosphorylation assay)” value in data set [3] is listed as “dephosphorylation assays using the synthetic serine phosphatase substrate RRApSVA demonstrated superior serine phosphatase activity”.
